# Laboratory results reported in patent publication US20170313754A1 (PROTAGONIST THERAPEUTICS, published 2017).
# Numbered stars: 1 amine (or outer) side, 2 acyl side, 3 side chain; on linkers, the order of the positions; unused ones are H or OH. Bridge positions count the residues as written; N and C are the ends. Square brackets hold non-standard residues; d marks the D form. Primed or numbered codes have the meaning given here. Ends that are not written are not given here. * marks the point of attachment. Ida = iminodiacetic acid, O=C(CN(CC(=O)[*:3])[*:1])[*:2]; PEG3′ = NH2CH2CH2(OCH2CH2)3CH2CH2CO2H (PEG3 linker); Dip = N[C@H](C(=O)O)C(c1ccccc1)c1ccccc1; β3hP = O=C(O)C[C@@H]1CCCN1; Isovaleryl = CC(C)CC(=O)*; Isobutyryl = CC(C)C(=O)*; Octanoyl = CCCCCCCC(=O)*; Sar = CNCC(=O)O
# T1: human ferroportin (SLC40A1) fused in frame with GFP, stably expressed in HEK293 cells (human, UniProt Q9NP59 1-571)
# T1 sequence (looked up): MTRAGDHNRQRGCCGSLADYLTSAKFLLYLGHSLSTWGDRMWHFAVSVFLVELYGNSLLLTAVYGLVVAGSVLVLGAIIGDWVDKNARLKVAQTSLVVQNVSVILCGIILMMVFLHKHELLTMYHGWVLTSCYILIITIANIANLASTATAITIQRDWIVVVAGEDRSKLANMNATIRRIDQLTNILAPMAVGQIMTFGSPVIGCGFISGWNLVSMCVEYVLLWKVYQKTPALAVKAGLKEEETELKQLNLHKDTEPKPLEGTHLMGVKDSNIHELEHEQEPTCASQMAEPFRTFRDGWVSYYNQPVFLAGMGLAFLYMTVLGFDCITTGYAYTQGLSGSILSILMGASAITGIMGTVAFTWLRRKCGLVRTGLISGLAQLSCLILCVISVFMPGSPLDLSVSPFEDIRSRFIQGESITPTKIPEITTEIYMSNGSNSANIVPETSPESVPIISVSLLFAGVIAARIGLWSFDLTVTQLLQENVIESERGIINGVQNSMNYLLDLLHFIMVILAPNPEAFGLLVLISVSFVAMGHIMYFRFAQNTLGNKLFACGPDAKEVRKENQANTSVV
# T2: human ferroportin (SLC40A1) fused in frame with GFP, stably expressed in HEK293 cells (human, UniProt Q9NP59 1-571)
# T2 sequence (looked up): T1 sequence (looked up)
# B1: Hy-DTHFPCIIFGGPRSKGWNCK-NH2 (peptide)
# peptide: H-DTHFPCIIFGGPRSKGWNCK-NH2
# modifications: not fully specified (bridges); printed as Hy-DTHFPCIIFGGPRSKGWNCK-NH2; cysteine pairing not given here
# B2: Hy-DTHFPCIIFGPRSKGWNCK-NH2 (peptide)
# peptide: H-DTHFPCIIFGPRSKGWNCK-NH2
# modifications: not fully specified (bridges); printed as Hy-DTHFPCIIFGPRSKGWNCK-NH2; cysteine pairing not given here
# B3: Hy-DTHFPCIIFGGPRSRGWVCK-NH2 (peptide)
# peptide: H-DTHFPCIIFGGPRSRGWVCK-NH2
# modifications: not fully specified (bridges); printed as Hy-DTHFPCIIFGGPRSRGWVCK-NH2; cysteine pairing not given here
# B4: Isobutyric acid-DTHFPIC1IFVC2HRSKGC2YRRC1R-NH2 (peptide)
# peptide: Isobutyryl-DTHFPICIFVCHRSKGCYRRCR-NH2
# modifications: disulfide 11-17, 7-21
# SMILES: CC[C@H](C)[C@@H]1NC(=O)[C@@H](NC(=O)[C@@H](NC(=O)[C@@H]2CCCN2C(=O)[C@H](Cc2ccccc2)NC(=O)[C@H](Cc2c[nH]cn2)NC(=O)[C@@H](NC(=O)[C@H](CC(=O)O)NC(=O)C(C)C)[C@@H](C)O)[C@@H](C)CC)CSSC[C@@H](C(=O)N[C@@H](CCCNC(=N)N)C(N)=O)NC(=O)[C@H](CCCNC(=N)N)NC(=O)[C@H](CCCNC(=N)N)NC(=O)[C@H](Cc2ccc(O)cc2)NC(=O)[C@@H]2CSSC[C@H](NC(=O)[C@H](C(C)C)NC(=O)[C@H](Cc3ccccc3)NC1=O)C(=O)N[C@@H](Cc1c[nH]cn1)C(=O)N[C@@H](CCCNC(=N)N)C(=O)N[C@@H](CO)C(=O)N[C@@H](CCCCN)C(=O)NCC(=O)N2
# B5: Isobutyric acid-DTHFPIC1IFVC2HRSKGC2YRRC1R-NH2 (peptide)
# peptide: Isobutyryl-DTHFPICIFVCHRSKGCYRRCR-NH2
# modifications: disulfide 11-17, 7-21
# SMILES: CC[C@H](C)[C@@H]1NC(=O)[C@@H](NC(=O)[C@@H](NC(=O)[C@@H]2CCCN2C(=O)[C@H](Cc2ccccc2)NC(=O)[C@H](Cc2c[nH]cn2)NC(=O)[C@@H](NC(=O)[C@H](CC(=O)O)NC(=O)C(C)C)[C@@H](C)O)[C@@H](C)CC)CSSC[C@@H](C(=O)N[C@@H](CCCNC(=N)N)C(N)=O)NC(=O)[C@H](CCCNC(=N)N)NC(=O)[C@H](CCCNC(=N)N)NC(=O)[C@H](Cc2ccc(O)cc2)NC(=O)[C@@H]2CSSC[C@H](NC(=O)[C@H](C(C)C)NC(=O)[C@H](Cc3ccccc3)NC1=O)C(=O)N[C@@H](Cc1c[nH]cn1)C(=O)N[C@@H](CCCNC(=N)N)C(=O)N[C@@H](CO)C(=O)N[C@@H](CCCCN)C(=O)NCC(=O)N2
# Target: T1, human ferroportin (SLC40A1) fused in …
# Experiment: cell-based or functional assay
row,"Potency EC50 (nM), ferroportin-GFP internalization/degradation",Binder
1,> 1000 nM,H-DTHFPCINFGPRSKGWVCK-NH2 (disulfide 6-18 (inferred)) [Hy-DTHFPCINFGPRSKGWVCK-NH2]
2,> 1000 nM,H-DTHFPCIDFGPRSKGWVCK-NH2 (disulfide 6-18 (inferred)) [Hy-DTHFPCIDFGPRSKGWVCK-NH2]
3,> 1000 nM,Isovaleryl-DTHFGCIKFEPRSKEWVCK-NH2 (not fully specified (bridges); cysteine pairing not given here) [Isovaleric acid-DTHFGCIKFEPRSKEWVCK-NH2]
4,62 nM,Isovaleryl-DTHFPCIKFEPRSK(Octanoyl)EWVCK-NH2 (disulfide 6-18 (inferred)) [Isovaleric acid-DTHFPCIKFEPRS-K(octanoic acid)-EWVCK-NH2]
5,404 nM,B1
6,> 10000 nM,Isovaleryl-SKHAPCIKFEPRSKGWECK-NH2 (disulfide 6-18 (inferred)) [Isovaleric acid-SKHAPCIKFEPRSKGWECK-NH2]
7,> 1000 nM,Isovaleryl-DTEFPCIKFEPRSKEWVCK-NH2 (disulfide 6-18 (inferred)) [Isovaleric acid-DTEFPCIKFEPRSKEWVCK-NH2]
8,679 nM,H-DTHFPCIIFGGPRSKGWDCK-NH2 (disulfide 6-19 (inferred)) [Hy-DTHFPCIIFGGPRSKGWDCK-NH2]
9,> 10000 nM,Isovaleryl-DTHAPCIKF[Sar]PRSKGWECK-NH2 (disulfide 6-18 (inferred)) [Isovaleric acid-DTHAPCIKF-[Sarc]-PRSKGWECK-NH2]
10,> 10000 nM,Isovaleryl-STHAPCIKFEPRSKGWECK-NH2 (disulfide 6-18 (inferred)) [Isovaleric acid-STHAPCIKFEPRSKGWECK-NH2]
11,> 10000 nM,Isovaleryl-DTHAPCIKFEPRSKEWECK-NH2 (not fully specified (bridges); cysteine pairing not given here) [Isovaleric acid-DTHAPCIKFEPRSKEWECK-NH2]
12,57 nM,Isovaleryl-DTHFPCIFEPRSKGTCK-NH2 (disulfide 6-16 (inferred)) [Isovaleric acid-DTHFPCIFEPRSKGTCK-NH2]
13,> 1000 nM,B2
14,520 nM,B3
15,> 1000 nM,Isovaleryl-DTHFECIIFGPRSKGWVCK-NH2 (not fully specified (bridges); cysteine pairing not given here) [Isovaleric acid-DTHFECIIFGPRSKGWVCK-NH2]
16,80 nM,Isovaleryl-DTHFPCIKFEPHSKEWVCK-NH2 (not fully specified (bridges); cysteine pairing not given here) [Isovaleric acid-DTHFPCIKFEPHSKEWVCK-NH2]
17,> 10000 nM,Isovaleryl-DTHAPCIKFEPRSK[Sar]WECK-NH2 (disulfide 6-18 (inferred)) [Isovaleric acid-DTHAPCIKFEPRSK-[Sarc]-WECK-NH2]
18,157 nM,Isovaleryl-DTHFPCIIF[PEG3′]C-NH2 (cysteine pairing not given here) [Isovaleric acid-DTHFPCIIF-[PEG3]-C-NH2]

# Target: T2, human ferroportin (SLC40A1) fused in …
# Experiment: cell-based or functional assay
row,Potency EC50,Binder
1,93 nM,B4
2,63 nM,B5
3,17 nM,[Ida]TH[Dip][β3hP]ICIFGPRSKGWVCM-NH2 (disulfide 7-18 (inferred)) [[Ida]-TH-[Dpa]-[bhPro]-ICIFGPRSKGWVCM-NH2]
